From patent publication US20230250154A1 (CYTONICS, published 2023)

T1: Cathepsin G (UniProt P08311 21-244)
T1 sequence (looked up): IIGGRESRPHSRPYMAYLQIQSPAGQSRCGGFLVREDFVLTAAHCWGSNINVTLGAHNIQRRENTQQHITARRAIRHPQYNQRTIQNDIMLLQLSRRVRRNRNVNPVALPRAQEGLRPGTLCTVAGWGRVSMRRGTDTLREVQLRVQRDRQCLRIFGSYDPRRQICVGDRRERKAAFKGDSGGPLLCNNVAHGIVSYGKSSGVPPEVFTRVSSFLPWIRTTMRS

T2: MMP1 (human, UniProt P03956 100-469, limits assumed)
T2 sequence (looked up): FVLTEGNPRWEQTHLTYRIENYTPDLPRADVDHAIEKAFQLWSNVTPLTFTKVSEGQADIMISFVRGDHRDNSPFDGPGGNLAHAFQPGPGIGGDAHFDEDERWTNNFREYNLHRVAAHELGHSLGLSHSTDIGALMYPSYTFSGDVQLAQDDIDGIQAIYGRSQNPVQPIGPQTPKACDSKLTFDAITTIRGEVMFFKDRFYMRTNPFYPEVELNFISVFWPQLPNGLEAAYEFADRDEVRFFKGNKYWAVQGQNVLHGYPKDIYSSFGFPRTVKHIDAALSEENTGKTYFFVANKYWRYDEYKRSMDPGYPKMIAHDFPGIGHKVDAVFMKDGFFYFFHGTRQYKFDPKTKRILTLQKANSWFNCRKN


Assays:
Experiment in all cases: cell-based or functional assay
Cathepsin G = target: T1, Cathepsin G
Elastase = target: Elastase
MMP1 = target: T2, MMP1

Protease Inhibition (% of WT) (Cathepsin G)	Protease Inhibition (% of WT) (Elastase)	Protease Inhibition (% of WT) (MMP1)	Binder
100 % of WT	350 % of WT	250 % of WT	Variant A2M, bait region SEQ ID NO 133 (other) SVSGKPQYMVLVPSLLHTETTEKGCVLLSYLNETVTVSASLESVRGNRSLFTDLEAENDVLHCVAFAVPKSSSNEEVMFLTVQVKGPTQEFKKRTTVMVKNEDSLVFVQTDKSIYKPGQTVKFRVVSMDENFHPLNELIPLVYIQDPKGNRIAQWQSFQLEGGLKQFSFPLSSEPFQGSYKVVVQKKSGGRTEHPFTVEEFVLPKFEVQVTVPKIITILEEEMNVSVCGLYTYGKPVPGHVTVSICRKYSDASDCHGEDSQAFCEKFSGQLNSHGCFYQQVKTKVFQLKRKEYEMKLHTEAQIQEEGTVVELTGRQSSEITRTITKLSFVKVDSHFRQGIPFFGQVRLVDGKGVPIPNKVIFIRGNEANYYSNATTDEHGLVQFSINTTNVMGTSLTVRVNYKDRSPCYGYQWVSEEHEEAHHTAYLVFSPSKSFVHLEPMSHELPCGHTQTVQAHYILNGGTLLGLKKLSFYYLIMAKGGIVRTGTHGLLVKQEDMKGHFSISIPVKSDIAPVARLLIYAVLPTGDVIGDSAKYDVENCLANKVDLSFSPSQSLPASHAHLRVTAAPQSVCALRAVDQSVLLMKPDAELSASSVYNLLPEKDLTGFPGPLNDQDDEDCINRHNVYINGITYTPVSSTNEKDMYSFLEDMGLKAFTNSKIRKPKMCPQLEQYEMHGPIPENFFGVEGEGEGESELEGRGSSEDLVVQIVEEPHTKLRKYFPETWIWDLVVVNSAGVAEVGVTVPDTITEWKAGAFCLSEDAGLGISSTASLRAFQPFFVELTMPYSVIRGEAFTLKATVLNYLPKCIRVSVQLEASPAFLAVPVEKEQAPHCICANGRQTVSWAVTPKSLGNVNFTVSAEALESQELCGTEVPSVPEHGRKDTVIKPLLVEPEGLEKETTFNSLLCPSGGEVSEELSLKLPPNVVEESARASVSVLGDILGSAMQNTQNLLQMPYGCGEQNMVLFAPNIYVLDYLNETQQLTPEIKSKAIGYLNTGYQRQLNYKHYDGSYSTFGERYGRNQGNTWLTAFVLKTFAQARAYIFIDEAHITQALIWLSQRQKDNGCFRSSGSLLNNAIKGGVEDEVTLSAYITIALLEIPLTVTHPVVRNALFCLESAWKTAQEGDHGSHVYTKALLAYAFALAGNQDKRKEVLKSLNEEAVKKDNSVHWERPQKPKAPVGHFYEPQAPSAEVEMTSYVLLAYLTAQPAPTSEDLTSATNIVKWITKQQNAQGGFSSTQDTVVALHALSKYGAATFTRTGKAAQVTIQSSGTFSSKFQVDNNNRLLLQQVSLPELPGEYSMKVTGEGCVYLQTSLKYNILPEKEEFPFALGVQTLPQTCDEPKAHTSFQISLSVSYTGSRSASNMAIVDVKMVSGFIPLKPTVKMLERSNHVSRTEVSSNHVLIYLDKVSNQTLSLFFTVLQDVPVRDLKPAIVKVYDYYETDEFAIAEYNAPCSKDLGNADYKDDDDKGASHHHHHH
200 % of WT	300 % of WT	300 % of WT	Variant A2M, bait region SEQ ID NO 131 (other) SVSGKPQYMVLVPSLLHTETTEKGCVLLSYLNETVTVSASLESVRGNRSLFTDLEAENDVLHCVAFAVPKSSSNEEVMFLTVQVKGPTQEFKKRTTVMVKNEDSLVFVQTDKSIYKPGQTVKFRVVSMDENFHPLNELIPLVYIQDPKGNRIAQWQSFQLEGGLKQFSFPLSSEPFQGSYKVVVQKKSGGRTEHPFTVEEFVLPKFEVQVTVPKIITILEEEMNVSVCGLYTYGKPVPGHVTVSICRKYSDASDCHGEDSQAFCEKFSGQLNSHGCFYQQVKTKVFQLKRKEYEMKLHTEAQIQEEGTVVELTGRQSSEITRTITKLSFVKVDSHFRQGIPFFGQVRLVDGKGVPIPNKVIFIRGNEANYYSNATTDEHGLVQFSINTTNVMGTSLTVRVNYKDRSPCYGYQWVSEEHEEAHHTAYLVFSPSKSFVHLEPMSHELPCGHTQTVQAHYILNGGTLLGLKKLSFYYLIMAKGGIVRTGTHGLLVKQEDMKGHFSISIPVKSDIAPVARLLIYAVLPTGDVIGDSAKYDVENCLANKVDLSFSPSQSLPASHAHLRVTAAPQSVCALRAVDQSVLLMKPDAELSASSVYNLLPEKDLTGFPGPLNDQDDEDCINRHNVYINGITYTPVSSTNEKDMYSFLEDMGLKAFTNSKIRKPKMCPQLEQYEMHGPEGEGEGEGISEDLVVQIPENFFGVKEEEGLGSVEEPHTKLRKYFPETWIWDLVVVNSAGVAEVGVTVPDTITEWKAGAFCLSEDAGLGISSTASLRAFQPFFVELTMPYSVIRGEAFTLKATVLNYLPKCIRVSVQLEASPAFLAVPVEKEQAPHCICANGRQTVSWAVTPKSLGNVNFTVSAEALESQELCGTEVPSVPEHGRKDTVIKPLLVEPEGLEKETTFNSLLCPSGGEVSEELSLKLPPNVVEESARASVSVLGDILGSAMQNTQNLLQMPYGCGEQNMVLFAPNIYVLDYLNETQQLTPEIKSKAIGYLNTGYQRQLNYKHYDGSYSTFGERYGRNQGNTWLTAFVLKTFAQARAYIFIDEAHITQALIWLSQRQKDNGCFRSSGSLLNNAIKGGVEDEVTLSAYITIALLEIPLTVTHPVVRNALFCLESAWKTAQEGDHGSHVYTKALLAYAFALAGNQDKRKEVLKSLNEEAVKKDNSVHWERPQKPKAPVGHFYEPQAPSAEVEMTSYVLLAYLTAQPAPTSEDLTSATNIVKWITKQQNAQGGFSSTQDTVVALHALSKYGAATFTRTGKAAQVTIQSSGTFSSKFQVDNNNRLLLQQVSLPELPGEYSMKVTGEGCVYLQTSLKYNILPEKEEFPFALGVQTLPQTCDEPKAHTSFQISLSVSYTGSRSASNMAIVDVKMVSGFIPLKPTVKMLERSNHVSRTEVSSNHVLIYLDKVSNQTLSLFFTVLQDVPVRDLKPAIVKVYDYYETDEFAIAEYNAPCSKDLGNADYKDDDDKGASHHHHHH
100 % of WT	300 % of WT	300 % of WT	Variant A2M, bait region SEQ ID NO 135 (other) SVSGKPQYMVLVPSLLHTETTEKGCVLLSYLNETVTVSASLESVRGNRSLFTDLEAENDVLHCVAFAVPKSSSNEEVMFLTVQVKGPTQEFKKRTTVMVKNEDSLVFVQTDKSIYKPGQTVKFRVVSMDENFHPLNELIPLVYIQDPKGNRIAQWQSFQLEGGLKQFSFPLSSEPFQGSYKVVVQKKSGGRTEHPFTVEEFVLPKFEVQVTVPKIITILEEEMNVSVCGLYTYGKPVPGHVTVSICRKYSDASDCHGEDSQAFCEKFSGQLNSHGCFYQQVKTKVFQLKRKEYEMKLHTEAQIQEEGTVVELTGRQSSEITRTITKLSFVKVDSHFRQGIPFFGQVRLVDGKGVPIPNKVIFIRGNEANYYSNATTDEHGLVQFSINTTNVMGTSLTVRVNYKDRSPCYGYQWVSEEHEEAHHTAYLVFSPSKSFVHLEPMSHELPCGHTQTVQAHYILNGGTLLGLKKLSFYYLIMAKGGIVRTGTHGLLVKQEDMKGHFSISIPVKSDIAPVARLLIYAVLPTGDVIGDSAKYDVENCLANKVDLSFSPSQSLPASHAHLRVTAAPQSVCALRAVDQSVLLMKPDAELSASSVYNLLPEKDLTGFPGPLNDQDDEDCINRHNVYINGITYTPVSSTNEKDMYSFLEDMGLKAFTNSKIRKPKMCPQLEQYEMHGPIPENFFGVSELEGRGSSEDLVVQIKEEEGLGSVEEPHTKLRKYFPETWIWDLVVVNSAGVAEVGVTVPDTITEWKAGAFCLSEDAGLGISSTASLRAFQPFFVELTMPYSVIRGEAFTLKATVLNYLPKCIRVSVQLEASPAFLAVPVEKEQAPHCICANGRQTVSWAVTPKSLGNVNFTVSAEALESQELCGTEVPSVPEHGRKDTVIKPLLVEPEGLEKETTFNSLLCPSGGEVSEELSLKLPPNVVEESARASVSVLGDILGSAMQNTQNLLQMPYGCGEQNMVLFAPNIYVLDYLNETQQLTPEIKSKAIGYLNTGYQRQLNYKHYDGSYSTFGERYGRNQGNTWLTAFVLKTFAQARAYIFIDEAHITQALIWLSQRQKDNGCFRSSGSLLNNAIKGGVEDEVTLSAYITIALLEIPLTVTHPVVRNALFCLESAWKTAQEGDHGSHVYTKALLAYAFALAGNQDKRKEVLKSLNEEAVKKDNSVHWERPQKPKAPVGHFYEPQAPSAEVEMTSYVLLAYLTAQPAPTSEDLTSATNIVKWITKQQNAQGGFSSTQDTVVALHALSKYGAATFTRTGKAAQVTIQSSGTFSSKFQVDNNNRLLLQQVSLPELPGEYSMKVTGEGCVYLQTSLKYNILPEKEEFPFALGVQTLPQTCDEPKAHTSFQISLSVSYTGSRSASNMAIVDVKMVSGFIPLKPTVKMLERSNHVSRTEVSSNHVLIYLDKVSNQTLSLFFTVLQDVPVRDLKPAIVKVYDYYETDEFAIAEYNAPCSKDLGNADYKDDDDKGASHHHHHH
